Measured values from patent publication KR20190044006A (dated 2019).

Target: 재조합 MERS-CoV S1-RBD 단백질 (MERS-CoV EMC/2012, UniProt K9N5Q8 358-606)
Experiment: ELISA screening of hybridoma supernatants on RBD antigen

B1: 단일 클론 항체 AT2F7 (antibody, V domains shown)
VH: EVKLVESGGGLVKPGGSLKLSCAASGFTFSSYTMSWVRQTPEKRLEWVATISSGGSYTYYPDSVKGRFTISRDNAKNTLYLQMSSLKSEDTAMYYCTRDLYDGYFYYAMDYWGQGTSVTVSS
VL: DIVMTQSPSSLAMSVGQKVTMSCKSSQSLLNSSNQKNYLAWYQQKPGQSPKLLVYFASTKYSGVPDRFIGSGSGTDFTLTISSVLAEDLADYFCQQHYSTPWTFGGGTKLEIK
binding result: binds
